The target of this test is wild type tau (human, UniProt P10636). The experiment in a line: ELISA. For orientation: ELISA stands for enzyme-linked immunosorbent assay.
Sequence of wild type tau (P10636 2-758): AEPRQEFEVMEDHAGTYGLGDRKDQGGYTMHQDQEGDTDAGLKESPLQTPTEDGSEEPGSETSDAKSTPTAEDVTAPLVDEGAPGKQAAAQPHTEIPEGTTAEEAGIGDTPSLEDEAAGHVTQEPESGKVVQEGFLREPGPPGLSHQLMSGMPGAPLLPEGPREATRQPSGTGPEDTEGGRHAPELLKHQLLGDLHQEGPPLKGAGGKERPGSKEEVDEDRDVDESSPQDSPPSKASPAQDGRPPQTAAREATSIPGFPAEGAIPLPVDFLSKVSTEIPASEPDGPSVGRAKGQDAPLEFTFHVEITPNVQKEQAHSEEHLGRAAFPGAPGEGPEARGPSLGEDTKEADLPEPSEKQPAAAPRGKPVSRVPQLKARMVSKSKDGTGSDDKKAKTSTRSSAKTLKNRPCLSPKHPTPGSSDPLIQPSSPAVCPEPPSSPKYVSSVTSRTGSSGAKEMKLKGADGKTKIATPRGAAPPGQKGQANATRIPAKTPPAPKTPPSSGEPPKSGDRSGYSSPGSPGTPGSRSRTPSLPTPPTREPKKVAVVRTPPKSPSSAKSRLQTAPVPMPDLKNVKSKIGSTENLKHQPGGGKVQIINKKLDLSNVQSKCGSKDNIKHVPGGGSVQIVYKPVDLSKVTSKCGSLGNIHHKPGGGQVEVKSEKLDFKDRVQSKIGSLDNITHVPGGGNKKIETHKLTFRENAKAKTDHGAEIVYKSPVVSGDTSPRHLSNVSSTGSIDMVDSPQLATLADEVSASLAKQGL

B1: V0024 (antibody, V domains shown)
VH: QVQLQQPGTELVKPGASVKLSCKASGYTFTRFWMHWVKQRPGQGLEWIGNINPNNGGTDNNERFKSKATLTVDRSSSTAYMQLSSLTSEDSAVYYCARGTGTGAMDYWGQGTSVTVSS
VL: DVVMTQTPLSLPVSLGDQASISCRSSQSLVHSNGNTHLYWYLQKPGQSPKLLIYRVSSRFSGVPDRFSGSGSGTDFTLKISRVEAEDLGVYFCFQGTHVPRTFGGGTKLEIK
modifications: non-phosphorylated
B1: the binding result is given as “no binding”.

B2: V0009 (antibody, V domains shown)
VH: EVQLVESGGALVQPGGSLSLSCAASGFTFTDYYMSWVRQPPGKALEWLALIRNKAKGFTTEYSASVKGRFTISRDNSQSILLFQMNDLRADDSATYYCVRDINYWGQGTTLTVSS
VL: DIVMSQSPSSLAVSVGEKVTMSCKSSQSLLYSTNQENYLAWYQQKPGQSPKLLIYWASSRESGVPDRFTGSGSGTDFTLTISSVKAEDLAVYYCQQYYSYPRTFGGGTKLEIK
modifications: non-phosphorylated
Turning to B2, the binding result is on record as “no binding”.

B3: V0004 (antibody, V domains shown)
VH: QVQLQQPGAELVKPGASVKLSCKASDYTFTNYWMHWVKQRPGRGLEWIGRIDPNSGGTRYNEKFKNKATLTVDKPSSTAYMHLSSLTSEDSAVYYCAGDFDVWGTGTTVTVSS
VL: DIQMTQSPASLSASVGETVTITCRASGNIHNYLAWYQQRQGKSPQLLVYNAKTLPDGVPSRFSGSGSGTQYSLKINSLQPEDFGSYCCQHFWSTPLTFGAGTKLELK
modifications: non-phosphorylated
On to B3, for which the binding result was “no binding”.
